Results from the supplement of paper PMC10065799, “High-throughput profiling of sequence recognition by tyrosine kinases and SH2 domains using bacterial peptide display” (eLife, 2023).

Columns and labels:
Fer (mouse) = assay: phosphorylation enrichment, bacterial display (enrichment ratio); higher = better substrate or ligand; peptides without Tyr show the background
Fyn = Fyn (UniProt P06241); assay: as above
AncSZ = assay: as above
MERTK = MERTK (UniProt Q12866); assay: as above
Jak2 = Jak2 (UniProt O60674); assay: as above
Sequence of Jak2 (O60674 whole entry, looked up): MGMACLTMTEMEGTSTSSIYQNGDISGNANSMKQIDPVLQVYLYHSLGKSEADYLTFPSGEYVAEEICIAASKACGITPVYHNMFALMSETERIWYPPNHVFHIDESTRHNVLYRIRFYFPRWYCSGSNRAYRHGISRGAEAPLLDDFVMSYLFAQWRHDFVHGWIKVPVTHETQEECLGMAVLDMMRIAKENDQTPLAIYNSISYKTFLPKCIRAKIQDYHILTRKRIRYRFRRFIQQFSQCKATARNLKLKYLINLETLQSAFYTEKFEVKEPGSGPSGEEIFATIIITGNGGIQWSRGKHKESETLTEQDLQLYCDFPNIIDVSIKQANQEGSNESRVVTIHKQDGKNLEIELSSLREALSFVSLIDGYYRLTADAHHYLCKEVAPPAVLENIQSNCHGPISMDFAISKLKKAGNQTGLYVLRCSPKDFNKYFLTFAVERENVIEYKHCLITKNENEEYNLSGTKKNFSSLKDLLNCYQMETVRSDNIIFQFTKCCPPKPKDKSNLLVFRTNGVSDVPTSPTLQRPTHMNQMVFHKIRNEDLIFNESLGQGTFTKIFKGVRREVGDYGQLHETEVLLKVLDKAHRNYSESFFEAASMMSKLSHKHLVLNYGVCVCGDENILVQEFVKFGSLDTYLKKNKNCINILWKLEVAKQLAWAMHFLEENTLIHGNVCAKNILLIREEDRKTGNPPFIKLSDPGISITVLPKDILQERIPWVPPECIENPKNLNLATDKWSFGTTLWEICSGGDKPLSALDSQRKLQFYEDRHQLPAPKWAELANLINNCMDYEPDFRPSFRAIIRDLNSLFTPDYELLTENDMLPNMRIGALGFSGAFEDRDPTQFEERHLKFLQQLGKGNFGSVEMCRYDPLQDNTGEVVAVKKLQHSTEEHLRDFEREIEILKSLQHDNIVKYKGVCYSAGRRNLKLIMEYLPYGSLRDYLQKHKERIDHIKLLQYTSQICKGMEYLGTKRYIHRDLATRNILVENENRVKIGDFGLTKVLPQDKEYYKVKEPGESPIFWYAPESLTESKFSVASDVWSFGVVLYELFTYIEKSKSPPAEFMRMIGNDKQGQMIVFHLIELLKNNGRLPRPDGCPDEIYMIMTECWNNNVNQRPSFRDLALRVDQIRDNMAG

c-Abl (mouse) = assay: as above
c-Src = assay: as above
FGFR1 = FGFR1 (UniProt P11362); assay: as above
FGFR3 = FGFR3 (UniProt P22607); assay: as above
Fes = Fes (UniProt P07332); assay: as above
Sequence of Fes (P07332 whole entry, looked up): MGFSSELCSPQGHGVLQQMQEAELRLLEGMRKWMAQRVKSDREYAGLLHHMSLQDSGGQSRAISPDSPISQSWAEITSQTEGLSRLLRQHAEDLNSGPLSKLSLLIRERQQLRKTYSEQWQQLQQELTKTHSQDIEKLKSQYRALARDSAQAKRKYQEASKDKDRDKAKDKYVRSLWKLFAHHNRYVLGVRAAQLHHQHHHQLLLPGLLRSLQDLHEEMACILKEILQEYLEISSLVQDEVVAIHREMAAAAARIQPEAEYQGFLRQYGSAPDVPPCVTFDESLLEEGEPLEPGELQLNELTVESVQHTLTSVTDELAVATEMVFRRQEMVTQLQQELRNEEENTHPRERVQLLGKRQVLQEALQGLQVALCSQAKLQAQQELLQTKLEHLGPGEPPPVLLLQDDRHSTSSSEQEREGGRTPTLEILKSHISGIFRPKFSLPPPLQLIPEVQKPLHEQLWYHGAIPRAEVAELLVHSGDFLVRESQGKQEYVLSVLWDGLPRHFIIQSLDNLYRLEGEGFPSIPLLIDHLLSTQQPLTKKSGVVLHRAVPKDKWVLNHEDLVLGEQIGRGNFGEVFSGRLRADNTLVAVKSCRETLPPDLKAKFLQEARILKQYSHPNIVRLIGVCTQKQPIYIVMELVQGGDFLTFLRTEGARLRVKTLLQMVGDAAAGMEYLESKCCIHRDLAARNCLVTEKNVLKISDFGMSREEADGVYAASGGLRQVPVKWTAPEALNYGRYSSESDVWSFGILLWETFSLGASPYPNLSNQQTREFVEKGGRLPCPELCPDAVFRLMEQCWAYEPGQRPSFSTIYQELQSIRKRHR

EPHB2 = EPHB2 (UniProt P29323); assay: as above
Sequence of EPHB2 (P29323 whole entry, looked up): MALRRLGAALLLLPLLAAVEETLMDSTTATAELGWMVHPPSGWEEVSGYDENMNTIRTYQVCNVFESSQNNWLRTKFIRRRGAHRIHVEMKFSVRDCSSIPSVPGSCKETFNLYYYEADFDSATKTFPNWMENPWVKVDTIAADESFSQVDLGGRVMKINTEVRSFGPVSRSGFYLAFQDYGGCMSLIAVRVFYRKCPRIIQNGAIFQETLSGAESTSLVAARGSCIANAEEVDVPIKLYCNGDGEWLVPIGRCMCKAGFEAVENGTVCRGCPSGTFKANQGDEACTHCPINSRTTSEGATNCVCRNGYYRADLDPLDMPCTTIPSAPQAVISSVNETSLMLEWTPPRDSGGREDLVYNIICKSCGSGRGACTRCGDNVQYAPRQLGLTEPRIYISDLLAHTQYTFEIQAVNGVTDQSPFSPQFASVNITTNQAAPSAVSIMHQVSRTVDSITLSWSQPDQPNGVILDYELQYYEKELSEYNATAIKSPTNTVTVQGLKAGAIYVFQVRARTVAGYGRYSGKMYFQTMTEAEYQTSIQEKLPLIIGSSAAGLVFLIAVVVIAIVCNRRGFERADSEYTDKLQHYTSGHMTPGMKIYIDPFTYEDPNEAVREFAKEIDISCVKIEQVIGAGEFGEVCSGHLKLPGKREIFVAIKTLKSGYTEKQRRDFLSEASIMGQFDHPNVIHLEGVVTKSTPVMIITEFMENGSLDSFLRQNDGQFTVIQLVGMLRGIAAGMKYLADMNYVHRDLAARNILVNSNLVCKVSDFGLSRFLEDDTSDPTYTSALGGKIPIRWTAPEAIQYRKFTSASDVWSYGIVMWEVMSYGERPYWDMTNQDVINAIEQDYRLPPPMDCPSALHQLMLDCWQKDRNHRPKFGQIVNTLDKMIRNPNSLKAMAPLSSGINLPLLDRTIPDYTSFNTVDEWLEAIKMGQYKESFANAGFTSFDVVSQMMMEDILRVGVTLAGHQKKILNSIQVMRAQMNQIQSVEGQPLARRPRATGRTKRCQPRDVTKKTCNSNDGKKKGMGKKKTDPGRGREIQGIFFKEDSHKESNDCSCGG

Hck = Hck (UniProt P08631); assay: as above
Sequence of Hck (P08631 whole entry, looked up): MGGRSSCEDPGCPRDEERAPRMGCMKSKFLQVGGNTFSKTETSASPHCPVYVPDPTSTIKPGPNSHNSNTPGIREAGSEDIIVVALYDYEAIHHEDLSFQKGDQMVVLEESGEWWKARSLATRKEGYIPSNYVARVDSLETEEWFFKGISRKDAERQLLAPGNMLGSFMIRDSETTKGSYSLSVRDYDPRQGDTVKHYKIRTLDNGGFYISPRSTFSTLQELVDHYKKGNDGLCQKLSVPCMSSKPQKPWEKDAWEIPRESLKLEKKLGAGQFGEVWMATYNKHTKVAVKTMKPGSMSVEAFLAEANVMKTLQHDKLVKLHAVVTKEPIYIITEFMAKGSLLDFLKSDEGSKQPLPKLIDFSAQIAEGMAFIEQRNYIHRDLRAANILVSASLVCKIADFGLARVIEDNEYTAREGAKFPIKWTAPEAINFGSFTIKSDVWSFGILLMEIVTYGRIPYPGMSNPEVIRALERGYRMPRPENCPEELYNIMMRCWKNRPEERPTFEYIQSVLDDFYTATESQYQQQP

EPHB1 = EPHB1 (UniProt P54762); assay: as above
Grb2 SH2 = Grb2 SH2 (UniProt P62993); assay: SH2 binding enrichment of the phosphorylated peptide, bacterial display (enrichment ratio); higher = better substrate or ligand; peptides without Tyr show the background
Sequence of Grb2 SH2 (P62993 whole entry, looked up): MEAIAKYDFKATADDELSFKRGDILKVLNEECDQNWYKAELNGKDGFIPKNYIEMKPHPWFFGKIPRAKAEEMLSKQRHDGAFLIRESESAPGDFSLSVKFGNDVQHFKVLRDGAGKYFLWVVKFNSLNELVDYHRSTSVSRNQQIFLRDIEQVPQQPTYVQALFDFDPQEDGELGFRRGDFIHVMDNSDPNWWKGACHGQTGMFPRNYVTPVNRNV

SHP2-C SH2 = assay: as above
c-Src SH2 = assay: as above
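Wherever SH2 binding enrichment of the phosphorylated peptide, bacterial display is given: peptide library displayed on the E. coli surface as eCPX fusions, selected cells deep-sequenced, score is each peptide's frequency after selection divided by its frequency in the input.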
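Wherever phosphorylation enrichment, bacterial display is given: 11-residue human phosphosite peptides and single-mutation variants displayed on the E. coli surface, counted by deep sequencing, each peptide's frequency after selection divided by its frequency in the unselected input library; frequency after pTyr selection over input frequency; kinase dosed for 20-30% of maximal phosphorylation in three min.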

Sequence of MERTK (Q12866 whole entry, looked up): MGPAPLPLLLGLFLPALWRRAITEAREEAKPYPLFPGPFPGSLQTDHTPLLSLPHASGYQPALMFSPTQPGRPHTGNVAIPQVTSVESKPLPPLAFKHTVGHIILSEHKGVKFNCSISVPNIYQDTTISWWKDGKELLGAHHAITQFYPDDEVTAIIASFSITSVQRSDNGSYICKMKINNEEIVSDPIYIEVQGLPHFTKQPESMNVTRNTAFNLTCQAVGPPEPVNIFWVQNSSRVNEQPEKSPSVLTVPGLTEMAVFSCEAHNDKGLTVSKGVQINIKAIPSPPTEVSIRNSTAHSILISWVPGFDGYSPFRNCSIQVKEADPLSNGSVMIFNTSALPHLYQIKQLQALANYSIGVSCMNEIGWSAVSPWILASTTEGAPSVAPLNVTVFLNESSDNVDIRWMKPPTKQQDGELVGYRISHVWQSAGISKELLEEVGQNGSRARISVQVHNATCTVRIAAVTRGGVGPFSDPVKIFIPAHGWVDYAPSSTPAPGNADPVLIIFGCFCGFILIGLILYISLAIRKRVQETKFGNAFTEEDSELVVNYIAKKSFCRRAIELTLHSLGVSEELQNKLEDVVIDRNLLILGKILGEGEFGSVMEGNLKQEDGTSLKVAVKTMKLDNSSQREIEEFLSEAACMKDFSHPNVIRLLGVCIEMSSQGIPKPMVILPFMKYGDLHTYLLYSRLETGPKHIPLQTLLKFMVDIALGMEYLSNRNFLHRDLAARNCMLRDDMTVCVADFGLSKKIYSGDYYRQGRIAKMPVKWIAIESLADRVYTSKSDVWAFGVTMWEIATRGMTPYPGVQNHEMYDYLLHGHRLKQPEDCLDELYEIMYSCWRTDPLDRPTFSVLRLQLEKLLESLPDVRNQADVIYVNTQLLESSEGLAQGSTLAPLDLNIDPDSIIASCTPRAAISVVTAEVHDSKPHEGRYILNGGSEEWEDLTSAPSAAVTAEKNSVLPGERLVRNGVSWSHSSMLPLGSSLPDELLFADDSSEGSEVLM

Sequence | phosphorylation enrichment (Fer (mouse)) | phosphorylation enrichment (Fyn) | phosphorylation enrichment (AncSZ) | phosphorylation enrichment (MERTK) | phosphorylation enrichment (Jak2) | phosphorylation enrichment (c-Abl (mouse)) | phosphorylation enrichment (c-Src) | phosphorylation enrichment (FGFR1) | phosphorylation enrichment (FGFR3) | phosphorylation enrichment (Fes) | phosphorylation enrichment (EPHB2) | phosphorylation enrichment (Hck) | phosphorylation enrichment (EPHB1) | SH2 binding enrichment (Grb2 SH2) | SH2 binding enrichment (SHP2-C SH2) | SH2 binding enrichment (c-Src SH2)
PSQRRNVFFFS [PTEN_Y174_Y174N_YF] | 0.493 | 0.924 | 1.31 | 0.571 | 0.54 | 0.817 | 0.591 | 1.07 | 0.777 | 1.23 | 0.342 | 1.41 | 0.559 | 0.769 | 1.09 | 0.613
VVEVTYDDVPI [FLNB_Y1308] | 5.94 | 1.76 | 2.02 | 0.688 | 1.1 | 0.805 | 1.3 | 0.742 | 0.947 | 1.56 | 1.07 | 1.82 | 1.57 | 0.819 | 0.529 | 0.519
PDGHEYIYVDP [PDGFRA_Y572] | 2.64 | 1.32 | 5.55 | 1.46 | 1.81 | 2.84 | 3.24 | 11.7 | 7.36 | 1.39 | 2.66 | 1.6 | 3.21 | 2.06 | 0.748 | 0.752
SEDSEYYRAFE [CASQ2_Y178_K180R] | 0.515 | 0.823 | 2.7 | 0.523 | 1.29 | 0.89 | 0.824 | 0.869 | 1.24 | 1.29 | 0.696 | 0.685 | 0.67 | 0.901 | 0.67 | 0.47
FNNPAYFVLEG [INPPL1_Y986_YF] | 0.501 | 0.679 | 1.25 | 3.7 | 4.57 | 0.816 | 0.875 | 7.65 | 5.18 | 1.09 | 0.588 | 0.578 | 0.621 | 1.01 | 0.953 | 2.06
ANNQRYAFMPL [TMEM87B_Y460] | 0.394 | 0.436 | 0.588 | 5.61 | 0.621 | 0.528 | 0.485 | 0.535 | 0.566 | 0.696 | 0.591 | 0.393 | 0.655 | 0.821 | 0.84 | 1.42
PDKRIYQFTAS [SKAP2_Y197_A202S] | 0.802 | 0.826 | 0.691 | 0.846 | 0.637 | 0.551 | 0.765 | 0.831 | 0.649 | 0.684 | 0.629 | 0.698 | 0.491 | 0.953 | 0.613 | 0.642
VSLEAYCKHKY [RXRA_Y403_A398V] | 0.541 | 0.656 | 1.01 | 0.559 | 1.05 | 0.96 | 0.46 | 0.611 | 0.662 | 1.24 | 0.584 | 0.579 | 0.7 | 0.62 | 0.627 | 0.421
RKLVDYDSAQH [BIN1_Y150_R154Q] | 0.737 | 0.4 | 0.548 | 0.565 | 0.56 | 0.871 | 0.541 | 0.425 | 1.28 | 0.988 | 0.796 | 0.668 | 0.648 | 1.1 | 0.607 | 0.541
AQESNYRLLRR [SLC20A2_Y377] | 0.414 | 0.45 | 0.738 | 0.406 | 0.593 | 0.984 | 0.365 | 0.409 | 0.527 | 0.688 | 0.498 | 0.443 | 0.48 | 0.823 | 0.439 | 0.456
RPGSGYTNIMR [PKLR_Y564] | 0.429 | 0.919 | 0.64 | 0.579 | 0.532 | 0.723 | 0.707 | 0.439 | 0.415 | 0.586 | 0.588 | 0.784 | 0.345 | 1.32 | 1.43 | 2.58
LRFDSYSSFCN [SLC20A2_Y433_YF] | 0.617 | 0.464 | 1.54 | 0.479 | 1.37 | 0.833 | 0.642 | 0.703 | 1.1 | 1.52 | 0.734 | 0.687 | 0.736 | 0.805 | 0.612 | 0.519
PTFEHYANSTQ [SLC12A3_Y70_YF] | 1.14 | 0.852 | 1.34 | 0.771 | 0.742 | 0.742 | 0.433 | 0.818 | 0.988 | 1.07 | 0.993 | 0.598 | 0.768 | 1.43 | 0.576 | 1.09
EQSGSYIWVLA [DLG1_Y895_P899L] | 0.526 | 0.482 | 1.27 | 0.504 | 1.14 | 0.705 | 0.476 | 1.11 | 0.917 | 1.32 | 0.641 | 0.517 | 0.634 | 0.65 | 0.394 | 0.383
ASTHIYQIMNH [ITK_Y588_V587I] | 6.35 | 4.85 | 0.562 | 6.62 | 0.469 | 1.24 | 4.36 | 0.735 | 0.624 | 0.754 | 2.63 | 5.65 | 8.67 | 0.923 | 1.41 | 5.44
IVFTSYFLTIL [TAS2R16_Y239] | 0.511 | 0.578 | 1.45 | 0.476 | 1.76 | 1.05 | 0.514 | 0.641 | 0.976 | 1.89 | 0.709 | 0.633 | 0.676 | 0.918 | 0.955 | 0.897
SSQTVYQRVEG [TFR2_Y23] | 0.517 | 0.6 | 0.962 | 0.499 | 0.596 | 0.458 | 0.585 | 0.526 | 0.483 | 0.708 | 0.447 | 0.77 | 0.631 | 0.853 | 2.4 | 2.23

Sequence | phosphorylation enrichment (Fer (mouse)) | phosphorylation enrichment (Fyn) | phosphorylation enrichment (AncSZ) | phosphorylation enrichment (MERTK) | phosphorylation enrichment (Jak2) | phosphorylation enrichment (c-Abl (mouse)) | phosphorylation enrichment (c-Src) | phosphorylation enrichment (FGFR1) | phosphorylation enrichment (FGFR3) | phosphorylation enrichment (Fes) | phosphorylation enrichment (EPHB2) | phosphorylation enrichment (Hck) | phosphorylation enrichment (EPHB1) | SH2 binding enrichment (Grb2 SH2) | SH2 binding enrichment (SHP2-C SH2) | SH2 binding enrichment (c-Src SH2)
SKHRLYSDLQT [PTCHD1_Y84] | 0.654 | 0.376 | 0.5 | 0.645 | 0.406 | 0.476 | 0.371 | 0.339 | 0.411 | 0.715 | 0.484 | 0.422 | 0.443 | 1.3 | 1.12 | 1.57
NIRKKYFRAIL [CHD7_Y1217_Q1214R_YF] | 0.394 | 0.45 | 0.583 | 0.555 | 0.496 | 0.633 | 0.504 | 0.48 | 0.546 | 0.661 | 0.6 | 0.451 | 0.466 | 0.764 | 0.544 | 0.356
DDSNLYINVKL [MTHFD1_Y52] | 0.751 | 0.443 | 1.45 | 0.424 | 1.56 | 1.08 | 0.442 | 0.702 | 0.994 | 1.63 | 0.804 | 0.607 | 0.777 | 0.824 | 0.496 | 0.457
KPGLKYVTFGN [GALNTL5_Y404_YF] | 0.366 | 0.409 | 0.671 | 0.449 | 0.605 | 0.551 | 0.488 | 0.412 | 0.514 | 0.768 | 0.539 | 0.498 | 0.351 | 1.33 | 1.7 | 1.21
SEKIVYGHLDD [ACO2_Y71] | 0.505 | 0.817 | 0.829 | 0.359 | 0.815 | 0.793 | 0.847 | 0.432 | 0.573 | 1 | 0.556 | 0.639 | 0.499 | 0.865 | 0.926 | 0.56
YPSLPYSPVSS [CAMKK2_Y128_C123Y] | 3.13 | 0.458 | 0.663 | 0.514 | 0.489 | 0.564 | 0.546 | 0.873 | 0.721 | 0.683 | 0.401 | 0.62 | 0.436 | 0.967 | 1.01 | 0.668
YLGEEYVKAVG [TF_Y674] | 0.393 | 0.465 | 0.908 | 0.403 | 0.698 | 0.645 | 0.444 | 0.446 | 0.523 | 0.823 | 0.391 | 0.329 | 0.454 | 0.795 | 0.788 | 0.509
YEEDSYVKRSQ [RET_Y905] | 0.529 | 0.489 | 1.17 | 0.51 | 1.09 | 0.714 | 0.544 | 0.495 | 0.775 | 1.23 | 0.643 | 0.49 | 0.626 | 0.719 | 0.514 | 1.43
HGVSSYDTVIS [LDLR_Y465] | 0.638 | 0.818 | 1.19 | 0.811 | 0.911 | 0.779 | 0.441 | 0.801 | 0.706 | 1.15 | 0.865 | 0.846 | 0.515 | 0.936 | 0.795 | 6.43
IRFPPYTDWNQ [ALDH3B2_Y365_H361R_YF] | 0.53 | 0.395 | 0.741 | 0.421 | 0.555 | 0.45 | 0.328 | 0.54 | 0.493 | 0.739 | 0.392 | 0.439 | 0.396 | 0.886 | 0.748 | 0.768
ITNLLYHVVGG [GBA_Y412_W417G] | 1.32 | 5.17 | 1.18 | 7.37 | 2.67 | 1.12 | 3.81 | 6.43 | 5.48 | 1.12 | 3.36 | 5.76 | 5.68 | 1.07 | 1.12 | 0.953
VVVTKYCKEEL [ATP7B_Y1078_A1074V] | 0.554 | 0.568 | 1.08 | 0.447 | 0.968 | 0.873 | 0.492 | 0.58 | 0.824 | 1.37 | 0.658 | 0.546 | 0.639 | 0.637 | 0.609 | 0.369
PSAVAYPKRSQ [MARK3_Y432_V429A] | 0.444 | 0.563 | 0.697 | 0.685 | 0.577 | 0.615 | 0.696 | 0.382 | 0.545 | 0.818 | 0.563 | 0.441 | 0.544 | 1.06 | 0.646 | 0.473
YGSSSYGGAGG [RPA2_Y14] | 0.381 | 0.414 | 0.457 | 0.359 | 0.476 | 0.899 | 0.442 | 0.35 | 0.409 | 0.626 | 0.305 | 0.39 | 0.714 | 0.734 | 0.793 | 0.438
HQKKPYCHTHN [NRAP_Y53_A56T] | 1.34 | 1.04 | 1.88 | 0.627 | 3.44 | 1.21 | 0.794 | 1.27 | 3.53 | 2.33 | 0.854 | 1.13 | 1.7 | 1.45 | 1.55 | 1.08
QEVLEYFMKQM [PIK3CA_Y1038_A1035V] | 0.719 | 0.999 | 2.18 | 0.68 | 2.27 | 1.31 | 0.963 | 0.954 | 1.68 | 1.94 | 0.993 | 0.95 | 1.15 | 0.663 | 0.584 | 0.479
